These results are taken from paper PMC7397135.

In the assay the target is recombinant heterodimer of human FCGRT/B2M (human neonatal IgG Fc receptor) (human) (UniProt P55899). Kind of assay: electrochemical receptor sensor (amperometric I-T, time-current method); hFcγRn adsorbed in two layers on a gold nanoparticle-chitosan glassy carbon electrode with thionine and HRP as signal amplification, blocked with BSA; IgG in solution; constant voltage -0.38 V; data collected after 20 s; 8 mmol/L H2O2 in the test substrate; ultrapure water as blank; change rate of response current against IgG concentration, Ka by the double reciprocal (Lineweaver-Burk) method.
UniProt P55899, sequence (P55899 24-297, chain 1 of 2): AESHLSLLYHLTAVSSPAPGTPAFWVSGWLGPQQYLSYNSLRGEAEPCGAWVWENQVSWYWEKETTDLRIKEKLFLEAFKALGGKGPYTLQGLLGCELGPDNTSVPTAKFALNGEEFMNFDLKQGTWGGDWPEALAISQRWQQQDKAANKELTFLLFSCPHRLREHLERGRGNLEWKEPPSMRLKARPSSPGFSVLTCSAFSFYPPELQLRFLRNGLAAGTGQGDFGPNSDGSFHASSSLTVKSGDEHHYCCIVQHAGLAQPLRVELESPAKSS
UniProt P55899, sequence (P61769 21-119, chain 2 of 2, further chain): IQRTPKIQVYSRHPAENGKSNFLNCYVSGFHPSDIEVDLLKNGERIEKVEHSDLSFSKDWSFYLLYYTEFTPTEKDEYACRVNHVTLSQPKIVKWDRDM

For Human IgG (antibody), the Ka (interconnected allosteric constant) worked out at 1.02e-23 mol/L.
To Donkey IgG (antibody) belongs 1.14e-21 mol/L; to Quail IgY (antibody), 8.61e-20 mol/L; to Rabbit IgG (antibody), 2.29e-21 mol/L.
To Sheep IgG (antibody) belongs 2.17e-21 mol/L; to Bovine IgG (antibody), 1.59e-22 mol/L; to Horse IgG (antibody), 1.2e-22 mol/L.
